These results are taken from patent publication US6344189B1, “Use of protease inhibitors for treating skin wounds” (Biotech Australia Pty., Ltd., priority 1998, dated 2002).

“Also recorded” adds a separate entry of the source. Where two headings read alike, the source gives them in different places. Where a SMILES comes first, the peptide text is derived from it. [ ]: non-standard residue; d: D form. The star is where a group is joined. Sta = CC(C)C[C@H](N)[C@@H](O)CC(=O)O; Isovaleryl = CC(C)CC(=O)*

Data set [1] deals with protease activity in wound fluid. Briefly: Inhibition of protease activity in wound fluid in vitro, substrate ZGGRAMC, fluorescence at 460 nm. It counts as biochemical, patients.
Description: Wound fluid was collected from patients with chronic venous leg ulcers, and incubated in vitro in the presence or absence of each inhibitor along with the protease substrate ZGGRAMC. Cleavage of this substrate indicated protease activity, which was detected by fluorescence at 460 nm. Lack of fluorescence indicated inhibition of protease activity.
Conditions were as described above for single inhibitors.
Data set [2] concerns total protease activity in wound fluid. Nature of the data set: Total protease activity in wound fluid, chromogenic assay with azo-casein substrate. It counts as in vivo, patients. As to conditions: ng/ml of wound fluid or ng/mg protein. The procedure:
(§1) All wound fluid samples were analyzed for uPA activity by the Chromolise assay, and for total protein by the Bradford assay. If sufficient wound fluid was available, the following assays were also performed, in order of priority: (i) PAI-2 antigen level, by ELISA; (ii) a Western blot to detect whether the PAI-2 molecule was intact, complexed, or in fragments; (iii) total protease activity, determined by a chromogenic assay using azo-casein as substrate, and (iv) total protease activity in the presence of EDTA (to block metalloproteases) or aprotinin (to block plasmin). In addition, blood samples were analyzed by PAI-2 ELISA (0, 0.5, 1, 2 hr on day 1) and analyzed for FBC and clinical chemistry on day 1(0) and day 5.

The nature of data set [3]: PAI-2 release from gel in two compartment vessel with microporous membrane. It counts as physicochemical. As to conditions: cellulose gel, presence of Tween80, FIG. 4. An excerpt:
In these experiments, the PAI-2 containing gel was placed in the top chamber of a two compartment vessel. The bottom chamber contained buffer, and the two chambers were separated by a microporous membrane. The appearance of PAI-2 in the lower chamber indicated PAI-2 release from the gel, and was monitored by assays for PAI-2 activity.

The target of data set [4] is T1, uPA (Homo sapiens, UniProt P00749).
T1 construct: from tissue; host or cells: wound fluid
Briefly: Addition of PAI-2 to wound fluid, uPA activity. The data set is classed as biochemical. As to conditions: PAI-2 added to wound fluid. Here is the method: (§2) It also is apparent that the inhibitors must be stable in the wound fluid to be effective in aiding wound healing. In the context of the present invention, an inhibitor is suitably stable when it retains at least 50% of its activity after exposure to wound fluid for 3 hours. In this regard, therefore, it is particularly desirable to use an inhibitor that inhibits uPA and is stable in wound fluid.

In data set [5] the test system is chronic venous leg ulcers. Nature of the data set: Double blind placebo controlled randomized trial of topical PAI-2, ulcer area by tracing. The data set is classed as in vivo, patients. As to conditions: PAI-2 20 μg per cm^2 topical, five consecutive days; 29-day course; compared with placebo. An excerpt: The study was a double blind placebo controlled randomized trial. A stratified randomization was utilized according to ulcer size. Patients with ulcers less than, and greater than, 20 cm^2 were randomized separately. No minimum or maximum times were set for the patients' current ulcer episode. Minimum and maximum ulcer areas were 2 cm^2 and 50 cm^2, and a patient's resting ankle brachial doppler arterial pressure index for inclusion was equal to or greater than 0.80.
All patients received compression bandaging. The area of the ulcer was determined by tracing, and the test solution, either PAI-2 at 1.0 mg/ml in phosphate buffered saline, pH 7.0, or buffer alone, was applied at 20 μl (20 ,μg in the case of PAI-2) per cm^2. The patient was asked to lie recumbent on the examination couch while the test solution was applied to the surface of the wound, and to remain there for 15 minutes before bandaging was applied.
(§3) Test solution was applied in this manner for five consecutive days. This was followed by visits on days 15, 22, and 29. Ulcer area determination was made on days 1, 5, 15, 22, and 29, ulcer volume was measured by structured light assessment on days 1, 5, and 29, and the ulcer was photographed on days 1, 5, and 29. Adverse events were assessed at each visit, as were concomitant medications.

Data set [6] is described as follows: PAI-2 antigen level by ELISA and Western blot in wound fluid and blood samples. The data set is classed as in vivo, patients. As to conditions: for level of PAI-2 in wound fluid: first visit. Here is the method:
(§4) In addition, wound fluid was collected on the first day before addition of test solution, and 2 hr, 4 hr, and 6 hr afterwards. Wound fluid collection was also made on days 2, 3, 4, and 5 (before test solution addition) and day 29. Blood samples were taken on day 1 at 0 (before), 0.5 hr, 1 hr, and 2 hr after the test solution, and also at day 5. A punch biopsy was taken for histochemical examination of the ulcer edge on day 5.
as §1
(§5) The ELISA used for PAI-2 detected both glycosylated and non-glycosylated PAI-2, and both complexed (with uPA or tPA) and uncomplexed PAI-2. Insufficient wound fluid was obtained for total protease assays in the presence of aprotinin or EDTA. The variation in ulcer volume measurements by structured light assessment was very large:—20.4% on repeated measurements, so those data could not be used to judge small changes in ulcer volume.
Background: In an ELISA, binding on a coated surface is turned into a signal by an enzyme label.

Data set [7] is described as follows: Adverse events and histological examination of ulcer edge biopsies. It counts as in vivo, patients. The procedure:
as §3, §4
Histological examination was performed on biopsies taken at visit 5 after staining with hematoxylin and eosin. […] This effect is likely to be beneficial to the ulcer.

Data set [8] can be described thus: Stability of PAI-2 in wound fluid. It counts as in vitro ADME. As to conditions: 3-hour period, FIG. 1. The procedure: as §2
In data set [9] the test system is uPA. Briefly: uPA activity in patients' wound fluid by Chromolise assay. The data set is classed as in vivo. The procedure:
as §4, §1, §5

Setting [10] is: single inhibitors, wound fluid of chronic venous leg ulcers.

For `N=C(N)NC(=O)c1nc(Cl)c(N)nc1N` [Amiloride], the “Percent Inhibition” value in data set [1] (setting [10]) was 96%.

On to `O=C(O)CN(CCN(CC(=O)O)CC(=O)O)CC(=O)O` [EDTA, ethylene diamine tetraacetic acid], for which, in data set [1] (setting [10]), the “Percent Inhibition” value is 0%.

With `CCN1C(=O)C=CC1=O` [NEM, N-ethyl maleimide], the “Percent Inhibition” value in data set [1] (setting [10]) amounted to 21%.

Turning to `CC(C)CC(=O)N[C@H](C(=O)N[C@H](C(=O)N[C@@H](CC(C)C)[C@@H](O)CC(=O)N[C@@H](C)C(=O)N[C@@H](CC(C)C)[C@@H](O)CC(=O)O)C(C)C)C(C)C` [Pepstatin] (Isovaleryl-VV[Sta]A[Sta]-OH), the “Percent Inhibition” value in data set [1] (setting [10]) was found to be 0%.

“glutamic acid-glycine-arginine chloromethyl ketone [EGRCK]”: the “Percent Inhibition” value in data set [1] is 94%.

B1: plasminogen activator inhibitor 2 (protein, UniProt P05120 1-415, looked up)
Plasminogen activator …: MEDLCVANTLFALNLFKHLAKASPTQNLFLSPWSISSTMAMVYMGSRGSTEDQMAKVLQFNEVGANAVTPMTPENFTSCGFMQQIQKGSYPDAILQAQAADKIHSSFRSLSSAINASTGNYLLESVNKLFGEKSASFREEYIRLCQKYYSSEPQAVDFLECAEEARKKINSWVKTQTKGKIPNLLPEGSVDGDTRMVLVNAVYFKGKWKTPFEKKLNGLYPFRVNSAQRTPVQMMYLREKLNIGYIEDLKAQILELPYAGDVSMFLLLPDEIADVSTGLELLESEITYDKLNKWTSKDKMAEDEVEVYIPQFKLEEHYELRSILRSMGMEDAFNKGRANFSGMSERNDLFLSEVFHQAMVDVNEEGTEAAAGTGGVMTGRTGHGGPQFVADHPFLFLIMHKITNCILFFGRFSSP
As for B1, the total protease activity entry in [2] was “did not appear to be altered”. Besides, the “release of PAI-2 from gel” value in [3] is listed as “enhanced release”. For the same molecule, the “uPA activity in wound fluid” value with uPA [4] is given as “caused the inhibition of uPA activity”; with uPA [9] (subsequent days over the course of the study, PAI-2 vs placebo) it was “no significant difference”. The ulcer area entry in data set [5] was “significant decrease in the area of leg ulcers compared to controls; also recorded: a reduction in the ulcer area”. Also, the “intact PAI-2 in wound fluid, Western blot” value in data set [6] (2 hr) is reported as “significant amounts of intact PAI-2”. In addition, the “level of PAI-2 in wound fluid” value is recorded as “increased dramatically” in data set [6] (2 hr after topical application) and “declined almost to baseline” in data set [6] (4 hr after topical application). The “systemic distribution of topically applied PAI-2” value in data set [6] (blood samples, PAI-2 ELISA) is “No evidence of systemic distribution”. Moreover, the “damage to the tissue, histological examination” value in data set [7] (biopsies at visit 5, hematoxylin and eosin) is recorded as “No evidence of damage to the tissue”. In data set [7] (in vivo), the systemic toxicity entry was “does not appear to have systemic toxicity”. Also, the adverse events entry in data set [7] (topical PAI-2, chronic leg ulcers, course of the study) is “none of the adverse events was deemed related to the PAI-2 treatment”. Besides, the “stability in wound fluid” value in data set [8] was “relatively stable in wound fluid”. Also, in the data set with uPA [9] (first day of PAI-2 administration, relative to placebo group), the “specific activity of uPA (ng/mg of total protein in wound fluid)” value is on record as “declined over 6 hrs”. In addition, the “difference in uPA between the two groups expressed as units/ml of wound fluid” value in the data set with uPA [9] (per ml of wound fluid rather than per mg total protein) was “not apparent”.
